B1: MBP-tagged Hook2 Hook+CC1 (N427) WT [human] / GST-tagged LIC1 (389–523 aa) [not stated] (parent complex)
chain 1: MSVDKAELCGSLLTWLQTFHVPSPCASPQDLSSGLAVAYVLNQIDPSWFNEAWLQGISEDPGPNWKLKVSNLKMVLRSLVEYSQDVLAHPVSEEHLPDVSLIGEFSDPAELGKLLQLVLGCAISCEKKQDHIQRIMTLEESVQHVVMEAIQELMTKDTPDSLSPETYGNFDSQSRRYYFLSEEAEEGDELQQRCLDLERQLMLLSEEKQSLAQENAGLRERMGRPEGEGTPGLTAKKLLLLQSQLEQLQEENFRLESGREDERLRCAELEREVAELQHRNQALTSLAQEAQALKDEMDELRQSSERAGQLEATLTSCRRRLGELRELRRQVRQLEERNAGHAERTRQLEDELRRAGSLRAQLEAQRRQVQELQGQRQEEAMKAEKWLFECRNLEEKYESVTKEKERLLAERDSLREANEELRCAQLQ
chain 2: TAAGRPVDASPRVPGGSPRTPNRSVSSNVASVSPIPAGSKKIDPNMKAGATSEGVLANFFNSLLSKKTGSPGGPGVSGGSPAGGAGGGSSGLPPSTKKSGQKPVLDVHAELDRITRKPVTVSPTTPTSPTEGEAS

Variants of: B1
Assay: GST pull-down, anti-MBP immunoblot, band intensity quantified; n = 3; parent: 0.95; read off a plot

Variant | response [Pulldown/Input]
chain 1 MSVDKAELCGSLLTWLQTFHVPSPCASPQDLSSGLAVAYVLNQIDPSWFNEAWLQGISEDPGPNWKLKVSNLKMVLRSLVEYSQDVLAHPVSEEHLPDVSLIGEFSDPAELGKLLQLVLGCAISCEKKQDHIQRIMTLEESVAHVVMEAIQELMTKDTPDSLSPETYGNFDSQSRRYYFLSEEAEEGDELQQRCLDLERQLMLLSEEKQSLAQENAGLRERMGRPEGEGTPGLTAKKLLLLQSQLEQLQEENFRLESGREDERLRCAELEREVAELQHRNQALTSLAQEAQALKDEMDELRQSSERAGQLEATLTSCRRRLGELRELRRQVRQLEERNAGHAERTRQLEDELRRAGSLRAQLEAQRRQVQELQGQRQEEAMKAEKWLFECRNLEEKYESVTKEKERLLAERDSLREANEELRCAQLQ [chain 1 Q143A] | ~0.22
chain 1 MSVDKAELCGSLLTWLQTFHVPSPCASPQDLSSGLAVAYVLNQIDPSWFNEAWLQGISEDPGPNWKLKVSNLKMVLRSLVEYSQDVLAHPVSEEHLPDVSLIGEFSDPAELGKLLQLVLGCAISCEKKQDHIQRIMTLEESVQHVVMEAAQELMTKDTPDSLSPETYGNFDSQSRRYYFLSEEAEEGDELQQRCLDLERQLMLLSEEKQSLAQENAGLRERMGRPEGEGTPGLTAKKLLLLQSQLEQLQEENFRLESGREDERLRCAELEREVAELQHRNQALTSLAQEAQALKDEMDELRQSSERAGQLEATLTSCRRRLGELRELRRQVRQLEERNAGHAERTRQLEDELRRAGSLRAQLEAQRRQVQELQGQRQEEAMKAEKWLFECRNLEEKYESVTKEKERLLAERDSLREANEELRCAQLQ [chain 1 I150A] | ~0.18
